Experimental data reported in the supplement of paper PMC9170038.

Test system: MS2 coat protein
Test: apparent KD of MS2 coat protein; designed switch direction (-1 OFF switch, 1 ON switch): -1; higher = weaker reporter binding
In short: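 Designed RNA switches with common flanks were made on Illumina chips by stalled E. coli RNA polymerase. Titration with SNAP-549-labelled MS2 coat protein doubled from 0.7 or 1.5 nM up to 3 µM. Apparent KD is each design's median over clusters after curve-fitting normalised fluorescence.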

[1] = Eterna round: R95, input ligand: FMN 200 uM
[2] = Eterna round: R95, input ligand: microRNA oligo, concentration not stated
[3] = Eterna round: R95, input ligand: none
[4] = input ligand: microRNA oligo, concentration not stated

| Sequence | apparent KD of MS2 coat protein [1] | apparent KD of MS2 coat protein [2] | apparent KD of MS2 coat protein [3] | apparent KD of MS2 coat protein (input ligand: FMN 200 uM) | apparent KD of MS2 coat protein (input ligand: none) | apparent KD of MS2 coat protein [4] |
| --- | --- | --- | --- | --- | --- | --- |
| AGAAAUGCCCAUGGCCGCAAGCCUUUUGCUUGUCUUACCACAUGAGGAUCACCCAUGUGACAUGGGCUCCUGAUAAU [Zace] (puzzle: Sensor v3, turn-off variant 2) | 0.0126 µM | 0.0104 µM | 0.011 µM | – | – | – |
| AGAAUGCGAGGAUAUACAGCAAGAUAGCAAAAGACCCUCCAACAUGAGGAUCACCCAUGUAGAAGGCGCAUUCA [Eternabot (Original) Solution 19] (Eterna round: R97, puzzle: Exclusion 2) | – | – | – | 0.11 µM | 0.109 µM | – |
| AGACGUUAACAGGAUAUGGCCCUGCCGCAAGCGUUAGAAGGGUUGACAUGAGGAUCACCCAUGUGUGAUAGAAG [Eternabot (L1) Solution 95] (Eterna round: R97, puzzle: Exclusion 6) | – | – | – | 0.217 µM | 0.316 µM | – |
| AGAGAAUACUCAGGAUAUCUUAAUAGAAAGAGUAGAGAAGGGAGACAUGAGGAUCACCCAUGUGAAGUCUUGAGACUACAUGGU [Prohibition 28 - Jieux - Exclusion NG 1] (Eterna round: R96, puzzle: Exclusion NG 1) | – | – | – | – | – | 0.305 µM |
| AGAGAAUAGACAGGAUAUGAGAAUAGAUAGAGCUCAGAAGGGUCACAUGAGGAUCACCCAUGUGAAGUCUUGAGGCUGCGUGGA [Prohibition 19 - Jieux - Exclusion NG 1] (Eterna round: R96, puzzle: Exclusion NG 1) | – | – | – | 0.0146 µM | 0.0183 µM | 0.0109 µM |
| AGAGAGUCAGGAUAUGACGAAGAGAACAUGAGGAUCACCCAUGUAGCUUCGUAAUUAUCGUCAGAAGGGACGAACU [JR_Ex5_Sub089] (Eterna round: R97, puzzle: Exclusion 5) | – | – | – | 0.0157 µM | 0.0142 µM | – |
| AGAGAUGCCCAUGGCCGCAAGCUUUUUGCUUGUCUUACCACAUGAGGAUCACCCAUGUGACAUGGGCUCCUUAUAAU [Essoator] (puzzle: Sensor v3, turn-off variant 2) | 0.0135 µM | 0.00999 µM | 0.0121 µM | – | – | – |
| AGAGUGCUGCGAGGAUAUACAUGAGGAUCACCCAUGUUUUCGUGUGAGGCUUUGCCUCACACGAAGUAGAAGGCGCAGUACUCU [Mat - Exclusion NG 2 - Mod of JL - D31] (Eterna round: R96, puzzle: Exclusion NG 2) | – | – | – | 0.0079 µM | 0.0122 µM | 0.00879 µM |
| AGAUCACAUGAGGAUCACCCAUGUCAGGAUAUCGUCACUGGAGCCUCGGCUCCAGUGACGAGAAGGGAUAAUUA [E1/4-A2] (Eterna round: R97, puzzle: Exclusion 1) | – | – | – | 0.116 µM | 0.069 µM | – |
| AGAUCUUCCGUAAGGAUAUGUGUGAAACAGACGGCACAGAAGGUACAUGAGGAUCACCCAUGUUACGCCGCGUA [Eternabot (L1) Solution 85] (Eterna round: R97, puzzle: Brourd's mod of Exclusion 4) | – | – | – | 0.0623 µM | 0.0191 µM | – |
| AGAUGCUCAAGUCGACAUGAGGAUCACCCAUGUACAGUUAACGAGGAUAUCCGAGAUAAAUAAUAGGAGAAGGCGUGAUCAUGA [Ex NG3 #3] (Eterna round: R96, puzzle: Exclusion NG 3) | – | – | – | 0.154 µM | 0.123 µM | 0.0782 µM |
| AGAUGGCGAGGAUAUACAUGAGGAUCACCCAUGUGAAGAGAAAGAGUGAGGAAGAAAAGUAGAAGGCGCUGUCA [Mat - Exclusion 3 - Mod of Salish D29] (puzzle: Exclusion 3) | 0.897 µM | 0.0997 µM | 0.0882 µM | – | – | – |
| AGAUGGCGAGGAUAUACAUGAGGAUCACCCAUGUGAAGAUAAAGAGUGAGGAAGAAAAGUAGAAGGCGCUGUCA [Mat - Exclusion 3 - Mod of Salish D28] (Eterna round: R96, puzzle: Exclusion 3) | – | – | – | – | – | 0.103 µM |
| AGAUGGCGAGGAUAUACAUGAGGAUCACCCAUGUGAAGAUAAAGAGUGAGGAAGAAAAGUAGAAGGCGCUGUCA [Mat - Exclusion 3 - Mod of Salish D28] (puzzle: Exclusion 3) | 0.351 µM | 0.106 µM | 0.123 µM | – | – | – |
| AGAUGUAGAUACCGAUCCUACAUGAGGAUCACCCAUGUAGCUAGACGUGCGGGCGGCGCUCGUCGGACUACCAGUAG [salish99_TOv1_r3_095] (puzzle: Sensor v3, turn-off variant 1) | 0.163 µM | 0.155 µM | 0.232 µM | – | – | – |
| AGCACGCUUUUGCUCGAUCACAUGAGGAUCACCCAUGUGUGCUAAUAGGCCAAGGUGAAAGCCUCAGACAUAGUUUA [Eternabot (L1) Solution 1] (Eterna round: R97, puzzle: Sensor, turn-off variant 1) | – | – | – | 0.153 µM | 0.173 µM | – |

| Sequence | apparent KD of MS2 coat protein [1] | apparent KD of MS2 coat protein [2] | apparent KD of MS2 coat protein [3] | apparent KD of MS2 coat protein (input ligand: FMN 200 uM) | apparent KD of MS2 coat protein (input ligand: none) | apparent KD of MS2 coat protein [4] |
| --- | --- | --- | --- | --- | --- | --- |
| AGCAUGGUAGGAUAUACGGAGCAUUAGGGUUUGUUGUGUGGACAUGAGGAUCACCCAUGUAGAAGGGCCGUGCA [Mat - Exclusion 2 - Mod of JL - D83] (puzzle: Exclusion 2) | – | 0.0335 µM | – | – | – | – |
| AGCCACAGAGGAUAUACAUACAUCCAGUAGCAGAUAUUGCUACAUGAGGAUCACCCAUGUAGAAGGCUGUGGCA [Omei Ex2 BD B21] (Eterna round: R97, puzzle: Exclusion 2) | – | – | – | 0.139 µM | 1.04 µM | – |
| AGCCCUGCAGGAUAUGCCCGGGAUAACAUGAGGAUCACCCAUGUGACUGAUUGUUAUUCUGCAGAAGGGUAUGGGA [JL-EX5-4.16 ViennaUCT mod] (Eterna round: R97, puzzle: Exclusion 5) | – | – | – | 0.404 µM | 0.322 µM | – |
| AGCCUACAUGAGGAUCACCCAUGUCAGGAUAUCUCGCGGCGCGUCAAGUUCACGCCGCAGAGAAGGGACUCGGG [Ceusxeatis] (puzzle: Exclusion 1) | – | 0.0376 µM | – | – | – | – |
| AGCGAAAAGGCAGGAUAUGAGAAUAGAUAGAGCUCAGAAGGGCCACAUGAGGAUCACCCAUGUAAAGUCUUGAGGCUGCGUGGU [Prohibition 12 - Jieux - Exclusion NG 1] (Eterna round: R96, puzzle: Exclusion NG 1) | – | – | – | 0.488 µM | 0.0604 µM | 0.0684 µM |
| AGCGAUCAUGUUAGGAUAUCCAAGCAGACGCUCAAGGAGAAGGAACAUGAGGAUCACCCAUGUUUGAUCCAAAC [Usrediza] (Eterna round: R97, puzzle: Brourd's mod of Exclusion 4) | – | – | – | 0.104 µM | 0.0197 µM | – |
| AGCGGUGUUCAGGAUAUCUGGUUAUGACACAUGAGAGAAGGGAGCACAUGAGGAUCACCCAUGUGACCUUCGCG [Eternabot (Original) Solution 23] (Eterna round: R97, puzzle: Exclusion 6) | – | – | – | 0.016 µM | 0.0155 µM | – |
| AGCGUGGAGACAGGAUAUGAGAAUAGAUAGAACUCAGAAGGGUCACAUGAGGAUCACCCAUGUAAAGUCUUGAGGAUGAGUGGU [Prohibition 5 - Jieux - Exclusion NG 1] (Eterna round: R96, puzzle: Exclusion NG 1) | – | – | – | 0.119 µM | 0.0511 µM | 0.029 µM |
| AGCGUGGAGACAGGAUAUGAGAAUAGAUAGAACUCAGAAGGGUCACAUGAGGAUCACCCAUGUAAAGUCUUGAGGCUGCGUGGU [Prohibition 7 - Jieux - Exclusion NG 1] (Eterna round: R96, puzzle: Exclusion NG 1) | – | – | – | 0.341 µM | 0.109 µM | 0.0741 µM |
| AGCUGUGGCCGAGGAUAUCUAAACCUUCAAACCGAGGUAUACUCGGACAUGAGGAUCACCCAUGUAGAGAAGGCGGUCUCAGCA [Eli eng2 - 035] (Eterna round: R96, puzzle: Exclusion NG 2) | – | – | – | 0.0347 µM | 0.0134 µM | 0.00978 µM |
| AGCUGUGGCCGAGGAUAUCUAACUUCAAUAACCGAAAUAUAAUCGGACAUGAGGAUCACCCAUGUAGAGAAGGCGGUCUCAGCA [Eli eng2 - 082] (Eterna round: R96, puzzle: Exclusion NG 2) | – | – | – | – | – | 0.0107 µM |
| AGCUGUGGCCGAGGAUAUUGCGAACCAUGGAAAACCAUGGAAACUCUACAUGAGGAUCACCCAUGUAAGAAGGCGGUCUCAGCA [Eli eng2 - 025] (Eterna round: R96, puzzle: Exclusion NG 2) | – | – | – | 0.0187 µM | 0.0158 µM | 0.0107 µM |
| AGCUUUUUGUUCGUCUUACACAUGAGGAUCACCCAUGUGUCGGACCGCAUCGAUAGAUGUAGACCGAGAAGCAUGGG [Omdei Mir OFFv1 C9] (Eterna round: R97, puzzle: Sensor, turn-off variant 1) | – | – | – | 0.0956 µM | 0.0989 µM | – |
| AGGAUACAUGAGGAUCACCCAUGUGAGGAUAUACGAUAGCUCAGGAAGAGAUUAGUAUGUAGAAGGUGCGGGUG [Eternabot (L1) Solution 49] (Eterna round: R97, puzzle: Exclusion 1) | – | – | – | 0.205 µM | 0.198 µM | – |
| AGGAUGCUAGGAUAUACAGGUUGAAAACUGAUCGGCGCCAGACAUGAGGAUCACCCAUGUAGAAGGAGCGAGGC [EX2 B.26] (Eterna round: R97, puzzle: Exclusion 2) | – | – | – | 0.0361 µM | 0.0387 µM | – |
| AGGCCCGAUGGAGGAUAUGUAAGUAAUUGAGAUACUUCAUGUCACAUGAGGAUCACCCAUGUACGGCAGAAGGCCGACGGAGCC [Raanoner] (Eterna round: R96, puzzle: Exclusion NG 2) | – | – | – | 0.0249 µM | 0.02 µM | 0.0173 µM |
